Data reported in publication PMC2522368 (Molecular cell, 2008).

How the values were obtained:
[1] = biological target: talin-RM (1654-2344) (UniProt P26039); test: SPR
[2] = biological target: talin-R4 (1654-1848) (UniProt P26039); test: SPR
[3] = biological target: talin-R6-R8 (1984-2344) (UniProt P26039); test: SPR
[4] = biological target: talin-H (Mus musculus, UniProt P26039); test: SPR, lipid immobilised on biotin chip, talin-H injected; type: binding; conditions: labelled compound; 10 mM Hepes, pH 7.4, 37 °C
talin-H, sequence (P26039 1-433): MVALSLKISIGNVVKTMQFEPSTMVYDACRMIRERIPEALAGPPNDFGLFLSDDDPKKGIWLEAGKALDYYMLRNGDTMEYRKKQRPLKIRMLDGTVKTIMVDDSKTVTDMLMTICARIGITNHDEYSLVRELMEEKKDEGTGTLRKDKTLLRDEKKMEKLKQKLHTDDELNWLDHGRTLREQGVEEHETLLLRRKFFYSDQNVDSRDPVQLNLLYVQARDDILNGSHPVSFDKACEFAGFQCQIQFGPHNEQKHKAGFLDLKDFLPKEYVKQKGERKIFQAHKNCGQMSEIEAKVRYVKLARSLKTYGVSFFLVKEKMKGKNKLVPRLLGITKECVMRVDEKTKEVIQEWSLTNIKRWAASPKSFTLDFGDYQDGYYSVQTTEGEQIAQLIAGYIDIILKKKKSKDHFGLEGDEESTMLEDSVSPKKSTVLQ

[5] = biological target: PIPKIγ peptide (Mus musculus) (UniProt O70161); conditions: cited from earlier work
PIPKIγ peptide (Mus musculus), sequence (O70161 whole entry): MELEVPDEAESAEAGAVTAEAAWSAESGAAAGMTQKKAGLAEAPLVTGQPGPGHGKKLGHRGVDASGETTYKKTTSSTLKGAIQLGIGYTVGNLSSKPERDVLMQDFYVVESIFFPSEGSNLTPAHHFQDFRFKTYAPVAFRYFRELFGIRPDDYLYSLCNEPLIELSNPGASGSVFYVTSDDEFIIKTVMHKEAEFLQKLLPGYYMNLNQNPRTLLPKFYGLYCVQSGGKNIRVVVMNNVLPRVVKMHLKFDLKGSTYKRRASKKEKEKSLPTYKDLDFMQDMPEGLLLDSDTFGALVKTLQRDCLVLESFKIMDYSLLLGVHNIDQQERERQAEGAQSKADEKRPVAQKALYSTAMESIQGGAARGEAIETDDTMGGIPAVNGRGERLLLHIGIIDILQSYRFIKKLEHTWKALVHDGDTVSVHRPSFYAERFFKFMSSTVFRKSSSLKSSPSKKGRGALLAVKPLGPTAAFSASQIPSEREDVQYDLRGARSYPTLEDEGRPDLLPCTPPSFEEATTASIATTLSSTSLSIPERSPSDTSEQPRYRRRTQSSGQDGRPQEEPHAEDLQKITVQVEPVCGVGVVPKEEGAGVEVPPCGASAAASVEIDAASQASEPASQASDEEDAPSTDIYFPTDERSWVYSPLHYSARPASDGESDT

talin-RM (1654-2344), sequence (P26039 1654-2344): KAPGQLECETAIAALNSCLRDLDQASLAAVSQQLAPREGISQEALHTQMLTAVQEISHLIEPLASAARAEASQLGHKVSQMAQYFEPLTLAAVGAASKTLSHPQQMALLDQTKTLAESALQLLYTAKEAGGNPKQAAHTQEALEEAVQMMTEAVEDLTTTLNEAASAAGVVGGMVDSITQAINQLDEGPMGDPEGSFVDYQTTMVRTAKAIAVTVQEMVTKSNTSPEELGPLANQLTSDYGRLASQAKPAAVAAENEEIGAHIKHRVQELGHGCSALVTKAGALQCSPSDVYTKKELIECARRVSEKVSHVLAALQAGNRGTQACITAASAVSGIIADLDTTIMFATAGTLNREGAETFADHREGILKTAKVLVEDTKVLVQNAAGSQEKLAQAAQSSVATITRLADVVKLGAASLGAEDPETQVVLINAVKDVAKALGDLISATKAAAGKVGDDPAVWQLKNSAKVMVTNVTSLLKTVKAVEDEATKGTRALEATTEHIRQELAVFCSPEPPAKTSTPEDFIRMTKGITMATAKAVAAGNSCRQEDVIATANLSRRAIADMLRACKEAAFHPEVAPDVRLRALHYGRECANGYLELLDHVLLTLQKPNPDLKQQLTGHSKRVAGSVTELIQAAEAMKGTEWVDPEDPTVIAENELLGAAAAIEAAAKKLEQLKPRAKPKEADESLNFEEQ
talin-R6-R8 (1984-2344), sequence (P26039 1984-2344): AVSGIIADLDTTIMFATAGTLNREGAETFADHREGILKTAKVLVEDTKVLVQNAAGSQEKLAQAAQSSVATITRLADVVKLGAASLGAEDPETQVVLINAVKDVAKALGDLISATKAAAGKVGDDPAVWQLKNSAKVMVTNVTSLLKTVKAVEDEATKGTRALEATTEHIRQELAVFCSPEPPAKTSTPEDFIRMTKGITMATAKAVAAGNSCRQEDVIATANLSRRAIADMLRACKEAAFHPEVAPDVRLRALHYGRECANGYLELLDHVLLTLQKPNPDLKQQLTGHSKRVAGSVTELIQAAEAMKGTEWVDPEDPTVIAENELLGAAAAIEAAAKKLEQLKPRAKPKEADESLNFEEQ
talin-PTB PTB, sequence (P26039 309-405): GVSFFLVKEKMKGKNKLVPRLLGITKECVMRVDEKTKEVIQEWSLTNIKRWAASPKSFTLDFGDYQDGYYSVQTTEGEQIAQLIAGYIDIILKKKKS
talin-R4 (1654-1848), sequence (P26039 1654-1848): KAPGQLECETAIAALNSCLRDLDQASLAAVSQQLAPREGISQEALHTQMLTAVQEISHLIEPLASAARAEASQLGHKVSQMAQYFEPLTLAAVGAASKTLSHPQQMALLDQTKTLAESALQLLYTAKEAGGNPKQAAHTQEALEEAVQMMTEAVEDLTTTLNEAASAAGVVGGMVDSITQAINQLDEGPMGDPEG

Row | Substance | Kd [1] | further results
1 | WT talin-PTB (talin-F3/PTB, 306-405) (from UniProt P26039 306-405) (domain or fragment) | 0.577 µM | Kd [2]: 3.6 µM; Kd [3]: 78 µM
2 | biotinylated C6-PIP2 | – | Kd [4]: ~0.0892 µM
3 | talin-PTB L325R (from UniProt P26039 306-405) (domain or fragment) | 0.667 µM | –
4 | talin-PTB M319A (from UniProt P26039 306-405) (domain or fragment) | 80.9 µM | –
5 | talin-PTB PTB (from UniProt P26039) | – | Kd [5]: 0.27 µM
6 | talin-PTB Q381V (from UniProt P26039 306-405) (domain or fragment) | 314 µM | –
7 | talin-PTB S365D (from UniProt P26039 306-405) (domain or fragment) | 1660 µM | –
8 | talin-PTB S379R (from UniProt P26039 306-405) (domain or fragment) | 625 µM | –
9 | talin-PTB W359A (from UniProt P26039 306-405) (domain or fragment) | 0.529 µM | –
